Among the data in patent US20190367633A1 (published 2019) are EC50 and IC50 values, retold here.

In test [1] the target is human HER2 (Beijing Yiyi) (human, UniProt P04626 23-652). The experiment in a line: ELISA. On the technique in general: In an ELISA, binding on a coated surface is turned into a signal by an enzyme label.
The target of test [2] is T1, Recombinant human PD-1-Fc (human, UniProt Q15116 25-167). The experiment in a line: competition.
The target of test [3] is T1, Recombinant human PD-1-Fc. The experiment in a line: competition ELISA; blocking PD-1/PD-L2.
Test [4] deals with Recombinant human PD-1 (Beijing Yiqiao Shenzhou, Cat. No. 10377-H08H) (human, UniProt Q15116 25-167). The experiment in a line: ELISA.
The target in test [5] is T1, Recombinant human PD-1-Fc. The experiment in a line: competition ELISA; blocking PD-1/PD-L1.

Where “and” joins values, the source holds several entries; their conditions need not be identical. Equal values may be shown once. Bounds are passed on as bounds.

B1: PD-1 MONOCLONAL ANTIBODYpem (antibody, V domains shown)
VH: QVQLVQSGVEVKKPGASVKVSCKASGYTFTNYYMYWVRQAPGQGLEWMGGINPSNGGTNFNEKFKNRVTLTTDSSTTTAYMELKSLQFDDTAVYYCARRDYRFDMGFDYWGQGTTVTVSS
VL: EIVLTQSPATLSLSPGERATLSCRASKGVSTSGYSYLHWYQQKPGQAPRLLIYLASYLESGVPARFSGSGSGTDFTLTISSLEPEDFAVYYCQHSRDLPLTFGGGTKVEIK
As for B1, the EC50 in test [1] is more than 20 nM.

B2: anti-PD-1BJHM/anti-HER2 heterodimeric bispecific antibody (bispecific antibody)
heavy 1: not shown
light 1: DIVLTQSPATLSVTPGDSVSLSCRANQSISNNLHWYQQRSHESPRLLIRFASQSISGIPSRFSGSGSGTDFTLSINSVETEDFGMYFCQQSDNWPLTFGAGTKLEIKRTVAAPSVFIFPPSDEQLKSGTASVVCLLNNFYPREAKVQWKVDNALQSGNSQESVTEQDSKDSTYSLSSTLTLSKADYEKHKVYACEVTHQGLSSPVTKSFNRGEC
heavy 2: not shown
light 2: not shown
Regarding B2, in test [2], the half-maximal inhibitory concentration (IC50) is 2.06 nM and 1.95 nM.

B3: PD-1 MONOCLONAL ANTIBODYBJHM (antibody, V domains shown)
VH: EVQLQESGGGLVKPGGSLKLSCAASGFTFSSYGMSWVRQTPEKRLEWVASISGGGRYTYYPDSMKGRFTISRDNAKNNLHLQMSSLRSEDTALYYCVYEYFYTMDYWGQGTSVTVSS
VL: DIVLTQSPATLSVTPGDSVSLSCRANQSISNNLHWYQQRSHESPRLLIRFASQSISGIPSRFSGSGSGTDFTLSINSVETEDFGMYFCQQSDNWPLTFGAGTKLEIK
For the molecule B3, the IC50 was more than 1.11 nM in test [3] and more than 1.2 nM in test [5]. Moreover, the values for the EC50 in test [4] and in test [1] were more than 0.08 nM and more than 20 nM, respectively.

B4: anti-PD-1pem/anti-HER2 heterodimeric bispecific antibody (bispecific antibody)
heavy 1: not shown
light 1: EIVLTQSPATLSLSPGERATLSCRASKGVSTSGYSYLHWYQQKPGQAPRLLIYLASYLESGVPARFSGSGSGTDFTLTISSLEPEDFAVYYCQHSRDLPLTFGGGTKVEIKRTVAAPSVFIFPPSDEQLKSGTASVVCLLNNFYPREAKVQWKVDNALQSGNSQESVTEQDSKDSTYSLSSTLTLSKADYEKHKVYACEVTHQGLSSPVTKSFNRGEC
heavy 2: not shown
light 2: not shown
For the molecule B4, the IC50 in test [2] was 3.68 nM and 4.54 nM.

By EC50 is commonly meant the concentration giving half of the maximal effect. A word on the IC50: it is the midpoint of a concentration-inhibition curve.
